From publication doi:10.1101/2022.12.15.520641

Target: 6His-σS (His-tagged RpoS) (E. coli) (UniProt P13445)
Assay: pull-down

Chain of UniProt P13445 (P13445 whole entry): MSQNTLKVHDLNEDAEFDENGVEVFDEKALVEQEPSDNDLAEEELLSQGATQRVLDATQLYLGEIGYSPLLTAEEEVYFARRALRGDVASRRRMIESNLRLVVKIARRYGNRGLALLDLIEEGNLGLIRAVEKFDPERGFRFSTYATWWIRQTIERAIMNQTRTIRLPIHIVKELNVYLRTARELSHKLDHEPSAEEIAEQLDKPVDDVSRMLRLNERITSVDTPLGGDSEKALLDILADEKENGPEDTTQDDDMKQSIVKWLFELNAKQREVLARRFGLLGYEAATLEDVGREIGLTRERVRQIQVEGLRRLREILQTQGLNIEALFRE

“RssB bound to Mg2+•beryllofluoride (phosphorylated-like RssB) (from UniProt P0AEV1 1-337) (natural protein)” was tested, and the fold increase in pull-down efficiency over RssB without Mg2+•beryllofluoride was 5 fold.
